In article PMC3936483:

Assays:
[1] = target: CTRP2 (C1q/TNF-related protein 2), C-terminal FLAG- or HA-tagged, full length (mouse) (UniProt Q9D8U4); experiment: SEC
[2] = target: serum CTRP2 (mouse (endogenous in C57BL/6 serum)) (UniProt Q9D8U4); experiment: SEC

serum CTRP2, sequence (Q9D8U4 25-294): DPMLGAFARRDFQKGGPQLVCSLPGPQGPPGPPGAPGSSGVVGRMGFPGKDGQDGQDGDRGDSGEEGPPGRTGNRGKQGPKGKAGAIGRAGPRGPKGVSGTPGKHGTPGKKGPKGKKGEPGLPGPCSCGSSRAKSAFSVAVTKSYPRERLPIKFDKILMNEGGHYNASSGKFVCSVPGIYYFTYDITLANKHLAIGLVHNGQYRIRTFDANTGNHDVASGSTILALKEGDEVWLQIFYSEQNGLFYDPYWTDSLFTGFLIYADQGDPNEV
CTRP2 (C1q/TNF-related protein 2), C-terminal FLAG- or HA-tagged, full length, sequence (Q9D8U4 25-294): as above

stoichiometry N [1]	stoichiometry N [2]	Substance
3	–	CTRP2 (C1q/TNF-related protein 2), C-terminal FLAG- or HA-tagged, full length (from UniProt Q9D8U4 25-294) (natural protein)
–	3	serum CTRP2 (from UniProt Q9D8U4 25-294) (natural protein)
